From the supplement of paper PMC9170038

Test system: K4 kissing-loop RNA reporter
Experiment: apparent KD of K4 kissing-loop reporter; higher = weaker reporter binding
Conditions: Eterna round: R107
Experimental: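 RNA-MaP round R107: designed RNA switches with theophylline, tryptophan, arginine or FMN aptamers are transcribed on-chip within common flanks. They are titrated with a labelled K4 kissing-loop RNA reporter in RNA-MaP buffer (100 mM Tris pH 7.5, 80 mM KCl, 4 mM MgCl2), without ligand or with the indicated ligand. Median apparent KD per design.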

[1] = input ligand: theophylline 20 uM
[2] = input ligand: tryptophan 2.4 mM
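Also: bound reporter read as fluorescence of individual clusters on recovered sequencing chips by microscopy, with normalized cluster intensities fitted with a binding model.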

Sequence | apparent KD of K4 kissing-loop reporter (input ligand: FMN 200 uM) [nM] | apparent KD of K4 kissing-loop reporter (input ligand: arginine 13.2 mM) [nM] | apparent KD of K4 kissing-loop reporter (input ligand: none) [nM] | apparent KD of K4 kissing-loop reporter [1] [nM] | apparent KD of K4 kissing-loop reporter [2] [nM]
AUAGAAAAGUGGCACCCUCACUAAAACAGUCGAGGACCGGUACGGCCGCCACUCGCGCGCUUUAGUGAUGUUAAAGCUAUGCAAA | 407 | 358 | 380 | 407 | 105
AUAUUGGUUGAGAGUGAUGUUCCUUGUGUUCGAGGACCGGUACGGCCGCCACUCGGGUAGAAAAUAAAAGAUAUGUUUGAUUUUU [BDazzled - #12 SS Tryptophan A] | 162 | 29.1 | 242 | 943 | 279
AUAUUUAUUUAGUCACUUUUAAUAUUAUGUCAGGAUAUCGUAAUUUCGAGAAGGGACUCAUGCUAGUGAUGUUAGCUAAUUCUCA [JR_Nu3_ExcFMNA_Sub023] | 102 | 161 | 135 | 160 | 110
AUCACAGUGAUGUUGUGAUAUGGUACAGAUACCAGACUAGUGCUAGUCCCUUGGCAGCUGUACUCAGCAGCACCACUAGCACUCG [Theo A Ex t6b] | 147 | 131 | 145 | 153 | 128
AUGCCUCUGGCUGAUACCAGUGAUGCAGGGUAUGAGACAGGGAGUGAUGUUCCCUGCAGCCACCCUUGGCAGCAGUUUAAGUUUG [Exclusion Theophylline B GF 20] | 184 | 180 | 185 | 197 | 168
AUGCGCGCGGCGGCCGCCACUCGCAUGAGAGUGAUGUUCUCACCGUGACCGUAAGGUCGCGGUGUGAGGACCGGGCCGGGCUGCG [#2 Same State - Tryptophan B Attempt #23 (HarryS)] | 28.4 | 72.7 | 245 | 281 | 118
AUGCGCGCGGCGGCCGCCACUCGCAUGAGAGUGAUGUUCUCGCCGGGCCCGAAAGGGCCCGGUGUGAGGACCGGGCCGGGCUGCG [#2 Same State - Tryptophan B Attempt #15 (HarryS)] | 176 | 64.9 | 145 | 91.8 | 237
AUGGUGGAUCAGUGAUGUUGGUGGAGUAGGUAGGAUAUGAGUGAUGUUAGAAGGAUCGGAGUGAUGUUCCAGGUGGUUGUGUUGU [KL-SSFMN-A3] | 540 | 302 | 548 | 516 | 389
AUGUACACGAUAGUGUACUCCUAGUGAUGUUAGGAUAUGCAGAUAUGCAGAAGGAACAAGUCAUCUGACAAUAGUCGGAUGACAA [FmnAX 9 #OpenEnded #K4Early] | 388 | 92.5 | 119 | 125 | 94.1
AUGUAUGAAUUAGGAUAUCGUGAGCCUUGCAUAUAUAUGAUAAAUGGAUAUGUCGUAGUGAUGUUACGAGAAGGAGUGUGGAGUA [KL-XFMN-B4] | 45 | 61.6 | 45.5 | 71.2 | 39.1
AUGUUGAGCGGAAGGAGCGGCUGAGCCAGUGAUGUUGGUUAAUCCAAGUGAUGUUGGAAAAGCCAGGUAGGUCGCCGCUUUACGU [whbob_SS_Arginine_B_2t144] | 1010 | 741 | 1040 | 926 | 832
AUUAAUUUCAGAGGAUAUCGUGAUUUUAUUUAAUUUAUUCAUUUGUGCAGUGAUGUUGCUAAUAUUCGAGAAGGCUGAUUUAUAA [whbob_Ex_FMNB__2th224] | 107 | 109 | 46.2 | 110 | 44.9
AUUAAUUUCAGAGGAUAUGCUUAAUUGAUUUAUUAUUAUCUAUUAUGCAGUGAUGUUGCAUAUUUUGCAGAAGGCUGAUUUAUAA [JR_SSFMNB_Sub018] | 123 | 156 | 140 | 156 | 125
AUUCUAUUGUGAAGGAGCGCGACUAGUAGUGAUGUUACUAUAUGACUUUAGUCUUAAUUCUCGCAGGUAGGUCGCACAAUAUAUA [JR_Nu_SSArginiB_Sub028] | 913 | 594 | 796 | 732 | 755
AUUUAGACGAGUGAUGUUCGUGUUAAUACAGAGGAUAUGCGUGAUUGCAGAAGGCUGUAUUUAUAUAUGUUAUGUGGUUUUAAAA [whbob_Ex_FMNA__2th187] | 76.6 | 115 | 87.2 | 99.7 | 66.3
AUUUAGACGAGUGAUGUUCGUGUUAUUACAGAGGAUAUGCGUAAAAGCAGAAGGCUGUAUUUAUAUUUGUUAUGUAAUUUUAAAA [JR_ExcFMNA_Sub006] | 75.2 | 105 | 85.9 | 94 | 63.9
AUUUAUCCGUCCAGCUGAGUGAUGUUUAGCCGAGGACCGGUACGGCCGCCACUCGUAAGAACCUGUUACGUUGGCUCCUGUGGUG [theeternabot_exclusion_KL_Trp_A_49] | 244 | 196 | 286 | 201 | 353
